The target of the assay is NFS1–ISD11–ISCU2 protein complex (SDU) (human) (UniProt Q9HD34). Put plainly: enzyme activity titration.
In general, Kd refers to a measure of binding affinity in units of concentration. A high value points to lower affinity. On to “FXN N146K variant (FRDA missense mutation) (from UniProt Q16595 82-210) (natural protein)”, for which the equilibrium dissociation constant (Kd) worked out at 6.25 µM. In the case of “FXN Q148R variant (FRDA missense mutation) (from UniProt Q16595 82-210) (natural protein)” it was 0.85 µM; in that of “FXN N146A variant (from UniProt Q16595 82-210) (natural protein)”, 1.35 µM; in that of “FXN Q148G variant (from UniProt Q16595 82-210) (natural protein)”, 2.17 µM.

The substance “FXN R165C variant (FRDA missense mutation) (from UniProt Q16595 82-210) (natural protein)” registered a Kd of 10.4 µM. This Kd lies about 4.8-fold higher than the previous one. The figure for “FXN Q153A variant (from UniProt Q16595 82-210) (natural protein)” is 7.5 µM.

The values are drawn from PMC3340929.
